± gives the uncertainty stated by the source.
Assay: self-splicing fitness, log relative to wild type (ln ratio); higher = more splicing; Tetrahymena group I intron in knt gene, E. coli kanamycin selection, DiMSum; sequences stand for … in CUCUCU…GGAGGGAAAAGUUAUCAGGCAUGCACCUGGUAGCUAGUCUUUAAACCAAUAGAUUGCAUCGGUUUAAAAGGCAAGACCGUCAAAUUGCGGGAAAGGGGUCAACAGCCGUUCAGUACCAAGUCUCAGGGGAAACUUUGAGAUGGCCUUGCAAAGGGUAUGGUAAUAAGCUGACGGACAUGGUCCUAACCACGCAGCCAAGUCCUAAGUCAACAGAUCUUCUGUUGAUAUGGAUGCAGUUCACAGACUAAAUGUCGGUCGGGGAAGAUGUAUUCUUCUCAUAAGAUAUAGUCGGACCUCUCCUUAAUGGGAGCUAGCGGAUGAAGUGAUGCAACACUGGAGCCGCUGGGAACUAAUUUGUAUGCGAAAGUAUAUUGAUUAGUUUUGGAGUACUCGUGGUCG
Method in brief: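 Six replicate transformations of E. coli BL21(DE3) with a pET-22b(+) library were grown overnight at 37°C or 30°C. The library randomised all eight P1ex-region intron nucleotides, the intron lying in the knt kanamycin-resistance gene, and plates were LB agar with or without 25 μg/mL kanamycin plus 100 μg/mL carbenicillin, 50 μM IPTG and 0.2% rhamnose. Pooled colonies were amplicon-sequenced on an Illumina HiSeq 2500, and fitness is the DiMSum error-weighted combination of wild-type-normalised replicate fold changes, kanamycin versus none.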

Sequence	self-splicing fitness (ln) (30 °C)	self-splicing fitness (ln) (37 °C)
CUACAGCAAUAUUACGCCCG	0.0629 ± 0.15	-0.112 ± 0.14
CUACAGCAAUAUUACGCCGU	-3.2 ± 0.19	-2.06 ± 0.29
CUACAGCAAUAUUACGCGAC	-1.03 ± 0.072	-0.76 ± 0.11
CUACAGCAAUAUUACGCGAU	-2.35 ± 0.095	-0.252 ± 0.092
CUACAGCAAUAUUACGCGGU	-3.49 ± 0.3	-2.17 ± 0.28
CUACAGCAAUAUUACGCGUU	-4.43 ± 0.23	-2.37 ± 0.21
CUACAGCAAUAUUACGCUAA	-2.93 ± 0.28	-2.29 ± 0.29
CUACAGCAAUAUUACGCUGA	-3.41 ± 0.28	–
CUACAGCAAUAUUACGCUGC	-2.88 ± 0.22	-1.77 ± 0.35
CUACAGCAAUAUUACGCUUA	-3.44 ± 0.19	-2.65 ± 0.19
CUACAGCAAUAUUACGGAUC	-4.11 ± 0.3	-2.51 ± 0.26
CUACAGCAAUAUUACGGGAG	-2.62 ± 0.11	-1.96 ± 0.12
CUACAGCAAUAUUACGGGUU	-3.18 ± 0.11	-2.94 ± 0.12
CUACAGCAAUAUUACGGUGG	-4.48 ± 0.21	-2.71 ± 0.15
CUACAGCAAUAUUACGUCCA	-3.07 ± 0.25	-1.3 ± 0.24
CUACAGCAAUAUUACGUGCU	–	-2 ± 0.13
CUACAGCAAUAUUACGUGUC	-3.95 ± 0.14	-2.73 ± 0.15
CUAGAGCAAUAUUACGACGA	-3.35 ± 0.13	-1.36 ± 0.13
CUAGAGCAAUAUUACGACGU	-3.28 ± 0.3	-0.837 ± 0.26
CUAGAGCAAUAUUACGACUU	-4.26 ± 0.27	-2.51 ± 0.25
CUAGAGCAAUAUUACGAGAA	-2.62 ± 0.35	-2.5 ± 0.45
CUAGAGCAAUAUUACGAGAG	-0.641 ± 0.071	-0.393 ± 0.099
CUAGAGCAAUAUUACGAUGU	-3.45 ± 0.3	-2.2 ± 0.31
CUAGAGCAAUAUUACGCACC	-2.44 ± 0.41	–
CUAGAGCAAUAUUACGCAUA	-2.97 ± 0.27	-2.93 ± 0.4

Sequence	self-splicing fitness (ln) (30 °C)	self-splicing fitness (ln) (37 °C)
CUAGAGCAAUAUUACGCCUG	-0.0979 ± 0.087	0.825 ± 0.12
CUAGAGCAAUAUUACGCUGC	-3.8 ± 0.33	-2.33 ± 0.33
CUAGAGCAAUAUUACGCUUC	-2.21 ± 0.42	-1.97 ± 0.3
CUAGAGCAAUAUUACGGACG	0.0877 ± 0.07	0.427 ± 0.097
CUAGAGCAAUAUUACGGCUU	-2.92 ± 0.24	-1.94 ± 0.26
CUAGAGCAAUAUUACGGGCC	-2.86 ± 0.34	-1.76 ± 0.34
CUAGAGCAAUAUUACGGUAU	–	-1.76 ± 0.49
CUAGAGCAAUAUUACGUAGA	-3.37 ± 0.16	-1.5 ± 0.15
CUAGAGCAAUAUUACGUCUU	-3.52 ± 0.18	-2.27 ± 0.22
CUAUAGCAAUAUUACGACCG	0.239 ± 0.18	0.785 ± 0.27
CUAUAGCAAUAUUACGAGCU	-1.79 ± 0.48	–
CUAUAGCAAUAUUACGAUUG	-0.58 ± 0.097	0.313 ± 0.13
CUAUAGCAAUAUUACGCGCC	-1.01 ± 0.43	–
CUAUAGCAAUAUUACGCUUU	-4.86 ± 0.45	-3.17 ± 0.28
CUAUAGCAAUAUUACGGAGA	-2.82 ± 0.3	-1.38 ± 0.33
CUAUAGCAAUAUUACGGCAG	-1.51 ± 0.13	-0.425 ± 0.13
CUAUAGCAAUAUUACGGGCC	-1.54 ± 0.36	–
CUAUAGCAAUAUUACGGGGU	-4.1 ± 0.2	-2.83 ± 0.28
CUAUAGCAAUAUUACGUAGG	-1.44 ± 0.085	-0.685 ± 0.13
CUCAAGCAAUAUUACGAAAC	-3.86 ± 0.32	-1.55 ± 0.17
CUCAAGCAAUAUUACGAAAU	-4.62 ± 0.46	-2.14 ± 0.17
CUCAAGCAAUAUUACGAACU	-3.03 ± 0.2	-1.27 ± 0.17
CUCAAGCAAUAUUACGAAUU	-4.18 ± 0.28	-3.03 ± 0.29
CUCAAGCAAUAUUACGACCU	-2.96 ± 0.15	-1.34 ± 0.17
CUCAAGCAAUAUUACGAGAU	-3.89 ± 0.2	-0.936 ± 0.12

Source: the supplement of paper PMC7877785
